Data on 6 molecules can be found in paper doi:10.1101/2023.07.17.549407 (bioRxiv, 2023).

Where no end group is shown, it is not given here. Ahx = NCCCCCC(=O)O

In experiment [1] the target is T1, carboxy-terminus of Hsp70 interacting protein (CHIP), recombinant (human, UniProt Q9UNE7 1-303).
T1 sequence: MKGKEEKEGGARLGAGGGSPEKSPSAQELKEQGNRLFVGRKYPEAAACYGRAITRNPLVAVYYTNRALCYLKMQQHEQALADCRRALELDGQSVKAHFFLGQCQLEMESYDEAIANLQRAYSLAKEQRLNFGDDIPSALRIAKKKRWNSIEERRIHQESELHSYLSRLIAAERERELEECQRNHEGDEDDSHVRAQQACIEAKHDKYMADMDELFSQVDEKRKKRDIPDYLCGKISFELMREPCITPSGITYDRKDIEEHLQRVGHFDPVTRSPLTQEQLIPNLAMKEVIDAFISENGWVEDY
The experiment is described as follows: fluorescence polarisation. (In general: In fluorescence polarisation assays a small probe gives low polarisation when free and higher when bound to something large.)

Experiment [2] addresses T2, Human CHIP(21-154)-TPR domain (human, UniProt Q9UNE7 21-154).
T2 sequence: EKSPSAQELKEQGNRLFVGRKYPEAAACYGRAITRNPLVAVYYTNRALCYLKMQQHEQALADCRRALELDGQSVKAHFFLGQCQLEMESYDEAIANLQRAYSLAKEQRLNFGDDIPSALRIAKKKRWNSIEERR
The experiment is described as follows: crystal structure.

Consider {FAM-Ahx}-IEEVD [Hsp70 C-terminal tracer (FAM-Ahx-IEEVD)], for which the binding result in experiment [1] was “binds”.
Still for that read-out and setting: the result for Ac-LPKTPIFRPD [CHIC2 C-terminal 10-mer peptide Ac-LPKTPIFRPD] reads “binds”.
In general, Kd refers to a measure of binding affinity in units of concentration. On to {FAM-Ahx}-IFRPD [labeled CHIC2 peptide (FAM-Ahx-IFRPD)], for which, in experiment [1], the Kd was 148 ± 6 nM.
LWWPD (not fully specified (N-terminus); printed as FITC-Ahx-LWWPD) [CHIPOpt tracer (FITC-Ahx-LWWPD)]: the binding result in experiment [1] is given as “binds”.
Same read-out and setting: as for {FAM-Ahx}-IWWPD [IWWPD tracer], the entry is “binds”.
Consider EFLPKTPIFRPD [HsCHIC2(154-165)-c-term peptide], for which the binding result in experiment [2] is “binds”.
